Paper doi:10.1101/2023.11.22.568272, “Sec7 regulatory domains scaffold autoinhibited and active conformations” (bioRxiv, 2023)

Target: the molecule itself
Assay: cryo-EM structure; single-particle cryoEM of purified full-length T. terrestris Sec7 with 2 mM fluorinated fos-choline 8; C2 symmetry for the dimer consensus map (5.3 Å), focused monomer map 3.7 Å, composite dimer model

B1: full-length Sec7 from Thielavia terrestris (natural protein)
chain: MEQKLISEEDLNSAVDHHHHHHRIPGLINSSLKFVVSSLDIIAAQAGRNKQLAELAEKALAAIKENDQQLPDPEVVFAPLQLATKSGTIPLTTTALDCIGKLISYSYFSAPSSSATQDGTEQTPLIERAIDTICDCFQGETTLVEIQLQIVKSLLAAVLNDKIIVHGAGLLKAVRQVYNIFLLSRSTANQQVAQGTLTQMVGTVFERVKTRLHMKEARANLGRLKASRSSLAVDRSDDQDSQAGKVDGEDATVETVSDATPSESVDKAGGGKLTLKDLEHRKSFDDSHMGDGPTMVSQVKPMKKASRSVSEQSLQESPQDETPESLDAEDEAYIRDAYLVFRSFCNLSTKILPPDQLYDLRGQPMRSKLISLHLIHTLLNNHITVFTSPLCTIRNTKNNEPTNFLQAIKYYLCLSITRNGASSVDRVFDICCEIFWLMLKYMRSSFKNEIEVFLNEIYLALLARRNAPLSQKLTFVGILKRLCEDPRALVELYLNYDCNQNVDNIFQTIVEDLSRFATASVPITPTQEQQYEESRSKSATAGEWQIKSVLPPPLSVALIATNHEADTELPKEYVMKRTALDSLVETLRSLVHWSQPGRPELNGASGDVQRRTSSDDLGDSIDPSMSETASRMEVPIAPATPVIDDDPDQLEKEKARKTAMTNAIKVFNFKPKHGIKLLIKEGFIPSDKPEDIARFLLREERLDKAQIGEYLGEGDQKNVDIMHAFVDMMDFSKKRFVDALREFLQAFRLPGEAQKIDRFMLKFAHRYVTGNPNAFANADTPYVLAYSVIMLNTDLHSSKVVKRMSKAEFIKNNRGINDNADLPDEYLIGIYDDIASNEIVLKSEREAAAAAGTLPAQSTGLAGLGQAFSNVGRDLQREAYVQQSEEISLRSEQLFRDLYRSQRKSATKGGVKFISATSFKHVGPMFDATWMSFFSTLSSLVQKTHNLDVNKLCLEGMKLATKIACLFDLSTPREAFISMLKNTANLNNPREMQAKNVEALKVLLDLAQTEGNYLKESWKDVLLCISQLDRLQLISGGVDESAVPDVSRARFVPPPRTETGESRKSTSSARRTRPRAHTGPQGVSLEIALESRSDEVIKSVDRIFTNTANLSRDAIIHFARALTEVSWDEIKVSGSNDSPRTYSLQKIVEISYYNMTRVRFEWSHIWDVLGEHFNRVGCHANTAIVFFALDSLRQLSMRFMEIEELAGFKFQKDFLKPFEHVMSNSSNVTVKDMVLRCLIQMIQARGENIRSGWRTMFGVFTVAAREPYESIVNLAYENVTQVYKTRFGVVISQGAFTDLIVCLTEFSKNMRFQKKSLQAMETLKSVIPTMLKTPECPLSQHKPTATTASGSESHSKKAAVQQTRTSVEEGFWFPVLFAFHDVLMTGEDLEVRSNALNYFFETLLRYGGDFPPEFWDILWRQQLYPIFMVLRSRPEMTNALNHEELSVWLSTTMIQALRNMITLFTHYFDALEYMLDRFLELLALCICQENDTIARIGSNCLQQLILQNVTKFTAEHWAKIVGAFCELFERTTAYQLFSATTINSTASLSPPPSGLELGGPLSPTSATAPVDGKSLKINGVETNGQTPGAEPANGDADGNGTAAAAADASAPAATPQPQQGPAQQLEEFKPNNPLQQQPVVVTAARRRFFNRIISRCVLQLLMIETVNELFSNDAVYAQIPSAELLRLMALLKKSFLFAKRFNADKDLRMRLWREGFMKQPPNLLKQESGSAATYVAILFRMFGDTAPDRRGSRADVEAALVPLCRDIIRGYTALDDESQHRNIVAWRPVVVDVLEGYAAFPRDAFAAHIRSFYPLVVELLGKDLGQDLRAALLLVLRRVGEVGLGIEGMGSGGAAAAAAAGAAAASSGQGNGNGAAAAAADSERRSSVLSVPSGPRHTPSMDSLNDDPSRQVMGKAEQKLISEEDLNSAVDHHHHHH
B1 was tested, and the “stoichiometry N” value was 2.
